Data: patent US20090022728A1

target: Aβ1-40 peptide; test: ELISA, nonbiotinylated peptide on plate
Sequence (peptide, as listed by the source): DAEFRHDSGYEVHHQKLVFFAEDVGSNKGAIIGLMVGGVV

A450 ELISA	Binder
0.23 A450	6G heavy chain variant 7D (N101C) (antibody, V domains shown) VH: QVQLVQSGAEVKKPGASVKVSCKASGYTFTTYAIHWVRQAPGQGLEWMGFTSPYSGVSNYNQKFKGRVTMTRDTSTSTVYMELSSLRSEDTAVYYCARFDCYDRGYVRDYWGQGTLVTVS VL: DIVMTQSPDSLAVSLGERATINCRASESVDNDRISFLNWYQQKPGQPPKLLIYAATKQGTGVPDRFSGSGSGTDFTLTISSLQAEDVAVYYCQQSKEFPWSFGGGTKVEIKR
0.21 A450	6G heavy chain variant 8H (N101H) (antibody, V domains shown) VH: QVQLVQSGAEVKKPGASVKVSCKASGYTFTTYAIHWVRQAPGQGLEWMGFTSPYSGVSNYNQKFKGRVTMTRDTSTSTVYMELSSLRSEDTAVYYCARFDHYDRGYVRDYWGQGTLVTVS VL: DIVMTQSPDSLAVSLGERATINCRASESVDNDRISFLNWYQQKPGQPPKLLIYAATKQGTGVPDRFSGSGSGTDFTLTISSLQAEDVAVYYCQQSKEFPWSFGGGTKVEIKR
0.22 A450	6G heavy chain variant 9E (N101R) (antibody, V domains shown) VH: QVQLVQSGAEVKKPGASVKVSCKASGYTFTTYAIHWVRQAPGQGLEWMGFTSPYSGVSNYNQKFKGRVTMTRDTSTSTVYMELSSLRSEDTAVYYCARFDRYDRGYVRDYWGQGTLVTVS VL: DIVMTQSPDSLAVSLGERATINCRASESVDNDRISFLNWYQQKPGQPPKLLIYAATKQGTGVPDRFSGSGSGTDFTLTISSLQAEDVAVYYCQQSKEFPWSFGGGTKVEIKR

target: Aβ1-42 peptide; test: ELISA, nonbiotinylated peptide on plate
Sequence (peptide, as listed by the source): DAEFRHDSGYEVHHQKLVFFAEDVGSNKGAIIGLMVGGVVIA

A450 ELISA	Binder
0.31 A450	6G heavy chain variant 7D (N101C) (antibody, V domains shown) VH: QVQLVQSGAEVKKPGASVKVSCKASGYTFTTYAIHWVRQAPGQGLEWMGFTSPYSGVSNYNQKFKGRVTMTRDTSTSTVYMELSSLRSEDTAVYYCARFDCYDRGYVRDYWGQGTLVTVS VL: DIVMTQSPDSLAVSLGERATINCRASESVDNDRISFLNWYQQKPGQPPKLLIYAATKQGTGVPDRFSGSGSGTDFTLTISSLQAEDVAVYYCQQSKEFPWSFGGGTKVEIKR
0.14 A450	6G light chain variant 5B (Q94G) (antibody, V domains shown) VH: QVQLVQSGAEVKKPGASVKVSCKASGYTFTTYAIHWVRQAPGQGLEWMGFTSPYSGVSNYNQKFKGRVTMTRDTSTSTVYMELSSLRSEDTAVYYCARFDNYDRGYVRDYWGQGTLVTVS VL: DIVMTQSPDSLAVSLGERATINCRASESVDNDRISFLNWYQQKPGQPPKLLIYAATKQGTGVPDRFSGSGSGTDFTLTISSLQAEDVAVYYCQGSKEFPWSFGGGTKVEIKR
0.18 A450	6G light chain variant 7E (Q94R) (antibody, V domains shown) VH: QVQLVQSGAEVKKPGASVKVSCKASGYTFTTYAIHWVRQAPGQGLEWMGFTSPYSGVSNYNQKFKGRVTMTRDTSTSTVYMELSSLRSEDTAVYYCARFDNYDRGYVRDYWGQGTLVTVS VL: DIVMTQSPDSLAVSLGERATINCRASESVDNDRISFLNWYQQKPGQPPKLLIYAATKQGTGVPDRFSGSGSGTDFTLTISSLQAEDVAVYYCQRSKEFPWSFGGGTKVEIKR
0.19 A450	6G light chain variant 7F (Q94K) (antibody, V domains shown) VH: QVQLVQSGAEVKKPGASVKVSCKASGYTFTTYAIHWVRQAPGQGLEWMGFTSPYSGVSNYNQKFKGRVTMTRDTSTSTVYMELSSLRSEDTAVYYCARFDNYDRGYVRDYWGQGTLVTVS VL: DIVMTQSPDSLAVSLGERATINCRASESVDNDRISFLNWYQQKPGQPPKLLIYAATKQGTGVPDRFSGSGSGTDFTLTISSLQAEDVAVYYCQKSKEFPWSFGGGTKVEIKR
0.2 A450	6G light chain variant 6E (E97P) (antibody, V domains shown) VH: QVQLVQSGAEVKKPGASVKVSCKASGYTFTTYAIHWVRQAPGQGLEWMGFTSPYSGVSNYNQKFKGRVTMTRDTSTSTVYMELSSLRSEDTAVYYCARFDNYDRGYVRDYWGQGTLVTVS VL: DIVMTQSPDSLAVSLGERATINCRASESVDNDRISFLNWYQQKPGQPPKLLIYAATKQGTGVPDRFSGSGSGTDFTLTISSLQAEDVAVYYCQQSKPFPWSFGGGTKVEIKR
0.12 A450	6G light chain variant 10E (S95L) (antibody, V domains shown) VH: QVQLVQSGAEVKKPGASVKVSCKASGYTFTTYAIHWVRQAPGQGLEWMGFTSPYSGVSNYNQKFKGRVTMTRDTSTSTVYMELSSLRSEDTAVYYCARFDNYDRGYVRDYWGQGTLVTVS VL: DIVMTQSPDSLAVSLGERATINCRASESVDNDRISFLNWYQQKPGQPPKLLIYAATKQGTGVPDRFSGSGSGTDFTLTISSLQAEDVAVYYCQQLKEFPWSFGGGTKVEIKR
